This assay addresses T1, YBEY-3 × FLAG (human), P58557.
T1 chain: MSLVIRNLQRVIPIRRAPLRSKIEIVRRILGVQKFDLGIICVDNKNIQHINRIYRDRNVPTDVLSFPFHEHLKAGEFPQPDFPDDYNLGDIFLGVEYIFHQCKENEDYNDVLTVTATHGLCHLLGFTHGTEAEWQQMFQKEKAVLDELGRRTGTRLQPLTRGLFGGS
Kind of assay: affinity purification with mass spectrometry; α-FLAG antibody and protein A-sepharose on mitochondrial lysates (0.5% n-dodecyl-β-D-maltoside, 20 mM Tris-HCl pH 7.5, 150 mM KCl, 4°C) of SAL001 cells expressing YBEY-3 × FLAG; parental Flp-In T-REx 293 as control; LC-MS/MS, spectral counts; YBEY:p32 stoichiometry from spectral abundance factors. The conditions noted are these: remark: other sources report otherwise.

B1: p32/C1QBP, endogenous, Q07021 74-282 (natural protein)
chain: LHTDGDKAFVDFLSDEIKEERKIQKHKTLPKMSGGWELELNGTEAKLVRKVAGEKITVTFNINNSIPPTFDGEEEPSQGQKVEEQEPELTSTPNFVVEVIKNDDGKKALVLDCHYPEDEVGQEDEAESDIFSIREVSFQSTGESEWKDTNYTLNTDSLDWALYDHLMDFLADRGVDNTFADELVELSTALEHQEYITFLEDLKSFVKSQ
On to B1, for which the stoichiometry N is 1.

A word on the stoichiometry N: it is the number of molecules, sites or subunits per partner or assembly.
